Here are results for two substances from patent US5942602.

Bounds are passed on as bounds.

Assay [1] deals with human full-length EGF receptor (human) (UniProt P00533).
The target in assay [2] is EGFRvIII (human) (UniProt P00533).
Assay [3] addresses human full-length EGF receptor (human) (UniProt P00533). The source holds these as a separate data set.
The target of assay [4] is EGFRvIII (human) (UniProt P00533). This is another data set of the same source.
Assay [5] has as its target human full-length EGF receptor (human) (UniProt P00533). This is another data set of the same source.

In the case of TGFα-ETA (from UniProt P01135), the IC50 of cell killing, SKBR3 cells, 40 h in assay [1] was 0.09 mg/L. In addition, in the assay with EGFRvIII (human) [2], the IC50 of cell killing, DH-EΔ801-P cells, 40 h was found to be 0.7 mg/L. The same substance displayed an IC50 of cell killing, DH-EGFR-E cells, 40 h in assay [3] of 0.042 mg/L. For the same substance, in the assay with EGFRvIII (human) [4], the IC50 of cell killing, DH-EΔ801-5 cells, 40 h is greater than 1 mg/L.
scFv(225) yielded a competition of TGFα-ETA (100 ng/ml) cytotoxicity by 10 µg/ml scFv, 40 h; MDA-MB468 cells (also A431 and SKBR3) (% cell killing) in assay [5] of 63.
